B1: Hairpin Ribozyme (parent)
chain: GUCCUCUUUCACGUGCGCGUGAAAGAGAGAAGUGAACCAGAGAAACACACGUUGUGGUAUAUUACCUGGUA

Variants of: B1
Assay: self-cleavage, relative activity (ratio to wild type); higher = more cleavage; co-transcriptional

Variant	self-cleavage
G57A G68A	0.119
U58G U60C	0.731
G56U C65G	0.104
G56U C65U	0.276
G56U C65A	0.203
A59U C66U	0.191
U58A C66A	0.18
G57A U62A	0.212
G57A U62C	0.117
G56A U67A	0.197
A59C C66G	0.253
U62A A71C	0.325
U62A A71U	0.169
U55C C65A	0.142
U55A G68U	0.17
U62C G69C	0.0631
U62C C66A	0.13
G56A U62G	0.293
U60A C66G	0.191
U60A U67C	0.155
U60A U67G	0.187
G57U A61U	0.203
A59U C65U	0.13
G56A G69C	0.108

Variant	self-cleavage
G54C U70A	0.216
G54C U70G	0.155
U55A U62G	0.0995
G54U U55G	0.399
G54U U55C	0.18
G56C U67A	0.205
G56C U67G	0.203
G54A C65G	0.107
G54A C65A	0.497
A61U C65U	0.188
A61U C65G	0.193
A61U A64U	0.3
U60C U67C	0.329
U60C U67G	0.207
U58C U63G	0.27
U58C U63A	0.212
G57C U58A	0.222
G57C U58C	0.258
G56C U58G	0.234
A61G U62C	0.0932
G57A A71U	0.187
U55G G69C	0.257
U55C A61C	0.0408
U62A G69C	0.113

Variant	self-cleavage
U62A G69U	0.04
U62A G69A	0.176
G54C C66U	0.254
G54U C65A	0.561
G54U C65G	0.145
G56C A71U	0.119
U55A C66A	0.188
G54A G69C	0.177
G54A G69U	0.143
U55A G69A	0.172
U55A G69U	0.146
G56A C66U	0.296
G56A C66G	0.114
G54U U63G	0.159
G54U U63A	0.267
U55C U70A	0.143
U55C U70C	0.195
A61G U70C	0.146
G56U A61G	0.178
G56U A61C	0.134
G57A U67A	0.2
G57U C65A	0.271
G57U C65U	0.25
U60G U62A	0.203

Variant	self-cleavage
U55G C66U	0.422
U60C U63C	0.314
G56A A59U	0.125
G54C A61C	0.183
U60G A71U	0.395
U60A A61G	0.216
U62C U67A	0.166
A61U C66U	0.176
A61U C66A	0.122
G54U U58A	0.302
U58C G68U	0.169
U58C G68A	0.301
G54U G69A	0.122
G54U A59C	0.0613
G54C U60G	0.27
A59U U70C	0.199
A59U U70G	0.159
G57A U63C	0.151
G57A U63G	0.182
G57C A59C	0.183
G57U U63C	0.146
G57U U63G	0.291
U55C A64G	0.132
U55C A64C	0.102

Variant	self-cleavage
U60G U67A	0.144
G57A C65U	0.231
G57U C66A	0.219
G57U C66U	0.244
U58C A61C	0.145
U58G U67C	0.0792
U58G U67A	0.181
U58G G68U	0.19
A61G C66A	0.246
G57U U70A	0.266
G54C G57U	0.217
G54C G57C	0.155
U55C C66A	0.13
U55C C66G	0.191
G56A U60G	0.186
A61C A64C	0.0878
A59C C65U	0.23
A59C C65G	0.246
A59C C65A	0.0683
U55C A59U	0.239
U60C G69C	0.326
U58G C65G	0.146
A59C A71G	0.119
G54C G69A	0.0998

Variant	self-cleavage
U55A G56C	0.203
U55A G56U	0.148
G54U U60C	0.834
U55A G57A	0.148
U55A G57C	0.146
G56A A61U	0.166
G56C U63C	0.17
G56C U63G	0.175
G56C U63A	0.0712
G57C A61U	0.161
U58A G68U	0.134
U58A G68A	0.272
G56U U70G	0.0481
G57U U58A	0.309
A61C U67A	0.252
A61C U67C	0.107
U55C G57C	0.12
U55A U58A	0.273
G54U U67A	0.207
G57U G69U	0.215
G57U G69C	0.0914
G56U U58G	0.0453
G57A U60C	0.205
U60C G68U	0.204

Variant	self-cleavage
U60C G68A	0.26
U58A U67A	0.273
U58A U67C	0.118
G54U U70A	0.657
U60G U63A	0.173
U60G U63G	0.0801
A59G U63G	0.0571
A59G U63A	0.262
U55G U70A	0.351
U55G U70G	0.17
G56A U70C	0.247
G56A U70A	0.223
U58C U67A	0.231
G57U U62G	0.176
G54U A71C	1.1
G57U G68U	0.196
U62A G68A	0.187
U62A G68C	0.156
G57C U62G	0.155
G54U A64C	0.128
G54U A64G	0.4
A61C C65A	0.165
A61U G68C	0.191
